Each binder was assayed against translin (in translin-trax complex);trax (translin-associated factor X) (Mus musculus;Mus musculus, UniProt Q62348;Q9QZE7 1-228;1-290, |) (assay: fluorescence polarization).
translin (in translin-trax complex);trax (translin-associated factor X), sequence (Q62348 whole entry, chain 1 of 2): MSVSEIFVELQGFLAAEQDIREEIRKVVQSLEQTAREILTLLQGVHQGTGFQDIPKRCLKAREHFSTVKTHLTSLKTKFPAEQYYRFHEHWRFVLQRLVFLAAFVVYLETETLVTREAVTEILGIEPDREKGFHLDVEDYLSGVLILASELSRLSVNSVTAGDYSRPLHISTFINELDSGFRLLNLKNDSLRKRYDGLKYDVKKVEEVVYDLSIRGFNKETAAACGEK
translin (in translin-trax complex);trax (translin-associated factor X), sequence (Q9QZE7 whole entry, chain 2 of 2): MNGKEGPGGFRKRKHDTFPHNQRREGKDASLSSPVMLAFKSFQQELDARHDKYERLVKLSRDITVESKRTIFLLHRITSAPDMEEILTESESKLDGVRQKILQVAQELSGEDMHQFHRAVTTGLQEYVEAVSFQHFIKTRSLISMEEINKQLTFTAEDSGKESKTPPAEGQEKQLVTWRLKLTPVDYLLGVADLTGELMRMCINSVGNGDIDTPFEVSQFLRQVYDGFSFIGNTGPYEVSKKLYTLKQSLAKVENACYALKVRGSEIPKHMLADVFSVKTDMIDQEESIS

Row | Binder | Kd [nM]
1 | TCTGAGCCCTGAGCTGCCAAGGAGCCACGAGATCTGAGT (ssDNA) [dPRM-2] | 4000
2 | UCUGAGCCCUGAGCUGCCAAGGAGCCACGAGAUCUGAGU (ssRNA) [PRM-2] | 40000

The binders below were run against translin (TB-RBP) (Mus musculus, UniProt Q62348 1-228) (assay: fluorescence polarization).
translin (TB-RBP), sequence (Q62348 whole entry): as the sequence (Q62348 whole entry, chain 1 of 2) above

Row | Binder | Kd [nM]
3 | AGAGGAGGAGGAGGAGGAGGAGGAG (ssRNA) [rGAG] | 500
4 | TCTGAGCCCTGAGCTGCCAAGGAGCCACGAGATCTGAGT (ssDNA) [dPRM-2] | 10000
5 | UCUGAGCCCUGAGCUGCCAAGGAGCCACGAGAUCUGAGU (ssRNA) [PRM-2] | 200
6 | UCUGAGCCCUCACCUGCCAAGGAGCCACCACAUCUGAGU (ssRNA) [PRM-2 Variant 3] | 300
7 | UCUGAGCCCUGAGCUGCCAAGGAGCCACCACAUCUGAGU (ssRNA) [PRM-2 Variant 2] | 200
8 | UCUGAGCCCUCACCUGCCAAGGAGCCACGAGAUCUGAGU (ssRNA) [PRM-2 Variant 1] | 1000
9 | UCUGAGCCCUGAGCUGCCAAGGAGCCACGA (ssRNA) [PRM-2(1-30)] | 200

From publication PMC2901993 (Biochemical and biophysical research communications, 2010)
